Where a SMILES comes first, the peptide text is derived from it. [ ]: non-standard residue; d: D form. The star is where a group is joined. X1 = O=C(CCCCCCCn1cnc2c(Br)c(Br)c(Br)c(Br)c21)*
Tests used:
Assay in all cases: Kinase panel residual activity
Format in all cases: biochemical
Settings in all cases: compound at 1 micromolar
[1] = biological target: MARK1 (Homo sapiens, UniProt Q9P0L2)
[2] = biological target: MNK1 (Homo sapiens, UniProt Q9BUB5)
[3] = biological target: RIPK2 (Homo sapiens, UniProt O43353)
[4] = biological target: PKBb (Homo sapiens, UniProt P31751)
[5] = biological target: p38a MAPK (Homo sapiens, UniProt Q16539)
[6] = biological target: SYK (Homo sapiens, UniProt P43405)
[7] = biological target: IRAK1 (Homo sapiens, UniProt P51617)
[8] = biological target: PRK2 (Homo sapiens, UniProt Q16513)
[9] = biological target: STK33 (Homo sapiens, UniProt Q9BYT3)
[10] = biological target: T1, TAO1 (Homo sapiens, UniProt Q7L7X3)
T1 sequence (Q7L7X3 1-1001): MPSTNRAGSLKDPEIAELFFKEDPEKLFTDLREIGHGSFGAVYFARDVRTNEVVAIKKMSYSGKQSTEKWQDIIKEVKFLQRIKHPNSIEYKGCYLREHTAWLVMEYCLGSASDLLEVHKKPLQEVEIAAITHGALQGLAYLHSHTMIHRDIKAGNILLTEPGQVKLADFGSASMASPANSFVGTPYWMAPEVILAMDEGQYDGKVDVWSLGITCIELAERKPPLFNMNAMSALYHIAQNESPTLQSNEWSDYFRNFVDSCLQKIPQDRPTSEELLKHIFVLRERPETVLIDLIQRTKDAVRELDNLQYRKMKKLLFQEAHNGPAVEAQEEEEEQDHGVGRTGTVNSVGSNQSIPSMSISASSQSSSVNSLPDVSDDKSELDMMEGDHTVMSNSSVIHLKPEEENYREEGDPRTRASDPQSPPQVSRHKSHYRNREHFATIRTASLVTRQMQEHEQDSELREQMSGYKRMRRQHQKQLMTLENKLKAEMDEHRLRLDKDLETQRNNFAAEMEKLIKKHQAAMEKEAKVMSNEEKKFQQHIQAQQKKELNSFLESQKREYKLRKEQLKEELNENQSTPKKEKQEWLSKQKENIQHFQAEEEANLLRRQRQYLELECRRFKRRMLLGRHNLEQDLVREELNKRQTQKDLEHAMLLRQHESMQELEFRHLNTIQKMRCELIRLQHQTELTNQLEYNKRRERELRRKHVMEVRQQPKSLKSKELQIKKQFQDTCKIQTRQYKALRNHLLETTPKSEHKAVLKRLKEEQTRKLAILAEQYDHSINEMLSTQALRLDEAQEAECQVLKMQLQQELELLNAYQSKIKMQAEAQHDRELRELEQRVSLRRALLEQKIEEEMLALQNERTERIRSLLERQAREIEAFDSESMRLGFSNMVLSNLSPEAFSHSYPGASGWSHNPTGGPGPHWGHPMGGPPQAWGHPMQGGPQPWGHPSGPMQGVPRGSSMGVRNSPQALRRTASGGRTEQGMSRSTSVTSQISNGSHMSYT

[11] = biological target: T2, NEK2a (Homo sapiens, UniProt P51955)
T2 sequence (P51955 1-445): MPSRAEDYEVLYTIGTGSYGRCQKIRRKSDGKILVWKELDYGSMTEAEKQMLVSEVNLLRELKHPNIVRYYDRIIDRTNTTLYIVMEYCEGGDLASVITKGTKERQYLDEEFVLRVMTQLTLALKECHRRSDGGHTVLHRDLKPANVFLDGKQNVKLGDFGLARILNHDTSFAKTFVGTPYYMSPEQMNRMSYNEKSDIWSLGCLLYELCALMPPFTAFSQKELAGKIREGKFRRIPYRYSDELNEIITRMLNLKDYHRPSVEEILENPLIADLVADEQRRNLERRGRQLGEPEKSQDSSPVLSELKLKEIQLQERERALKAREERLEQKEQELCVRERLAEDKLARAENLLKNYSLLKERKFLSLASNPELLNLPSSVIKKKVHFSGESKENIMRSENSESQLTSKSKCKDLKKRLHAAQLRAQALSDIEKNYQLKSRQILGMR

[12] = biological target: T3, TTK (Homo sapiens, UniProt P33981)
T3 sequence (P33981 1-857): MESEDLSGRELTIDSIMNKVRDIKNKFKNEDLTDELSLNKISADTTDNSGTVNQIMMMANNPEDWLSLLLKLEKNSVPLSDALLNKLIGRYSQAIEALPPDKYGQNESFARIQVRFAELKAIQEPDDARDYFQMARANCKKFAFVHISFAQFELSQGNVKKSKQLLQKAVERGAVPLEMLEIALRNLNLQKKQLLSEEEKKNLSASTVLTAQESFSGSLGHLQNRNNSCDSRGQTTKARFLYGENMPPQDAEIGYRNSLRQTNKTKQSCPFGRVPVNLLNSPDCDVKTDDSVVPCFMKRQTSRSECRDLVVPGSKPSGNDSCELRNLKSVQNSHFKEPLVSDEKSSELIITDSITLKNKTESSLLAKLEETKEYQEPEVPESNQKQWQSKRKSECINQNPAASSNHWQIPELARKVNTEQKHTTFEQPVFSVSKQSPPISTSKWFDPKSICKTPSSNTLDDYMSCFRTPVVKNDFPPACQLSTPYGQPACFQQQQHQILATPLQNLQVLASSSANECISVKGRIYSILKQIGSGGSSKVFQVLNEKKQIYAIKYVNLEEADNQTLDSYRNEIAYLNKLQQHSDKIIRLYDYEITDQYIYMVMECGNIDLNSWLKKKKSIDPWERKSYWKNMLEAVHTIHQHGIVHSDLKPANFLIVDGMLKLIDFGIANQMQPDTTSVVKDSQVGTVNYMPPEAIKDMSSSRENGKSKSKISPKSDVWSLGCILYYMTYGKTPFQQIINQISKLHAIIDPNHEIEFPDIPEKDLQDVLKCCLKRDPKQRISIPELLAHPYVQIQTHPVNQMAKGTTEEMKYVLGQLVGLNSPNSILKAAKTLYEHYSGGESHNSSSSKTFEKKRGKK

[13] = biological target: CSK (Homo sapiens, UniProt P41240)
Sequence of CSK (P41240 whole entry, species assumed): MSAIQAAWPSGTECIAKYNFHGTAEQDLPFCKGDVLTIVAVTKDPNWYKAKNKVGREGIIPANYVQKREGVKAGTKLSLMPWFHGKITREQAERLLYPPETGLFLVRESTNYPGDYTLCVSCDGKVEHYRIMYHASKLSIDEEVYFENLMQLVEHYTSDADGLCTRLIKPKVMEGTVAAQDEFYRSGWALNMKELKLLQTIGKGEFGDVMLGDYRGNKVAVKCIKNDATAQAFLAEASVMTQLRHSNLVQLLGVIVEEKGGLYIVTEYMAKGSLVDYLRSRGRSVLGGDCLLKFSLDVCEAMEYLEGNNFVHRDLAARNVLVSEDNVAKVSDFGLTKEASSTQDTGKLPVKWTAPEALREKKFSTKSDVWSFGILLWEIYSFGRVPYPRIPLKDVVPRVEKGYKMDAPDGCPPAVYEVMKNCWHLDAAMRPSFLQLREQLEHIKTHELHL

Sequence of PKBb (P31751 whole entry): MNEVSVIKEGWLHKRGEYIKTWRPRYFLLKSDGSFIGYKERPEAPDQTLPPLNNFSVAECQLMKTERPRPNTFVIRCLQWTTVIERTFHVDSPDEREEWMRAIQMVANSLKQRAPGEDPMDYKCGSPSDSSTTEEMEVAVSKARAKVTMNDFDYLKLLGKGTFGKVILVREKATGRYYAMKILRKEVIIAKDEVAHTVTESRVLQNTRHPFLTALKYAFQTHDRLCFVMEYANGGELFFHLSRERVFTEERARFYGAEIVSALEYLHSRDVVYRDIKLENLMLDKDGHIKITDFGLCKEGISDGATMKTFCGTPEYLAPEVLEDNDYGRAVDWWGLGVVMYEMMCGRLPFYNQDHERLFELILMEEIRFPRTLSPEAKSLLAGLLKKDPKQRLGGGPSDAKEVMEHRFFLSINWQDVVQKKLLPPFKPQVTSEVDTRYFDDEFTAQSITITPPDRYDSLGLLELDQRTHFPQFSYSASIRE
Sequence of MARK1 (Q9P0L2 whole entry, species assumed): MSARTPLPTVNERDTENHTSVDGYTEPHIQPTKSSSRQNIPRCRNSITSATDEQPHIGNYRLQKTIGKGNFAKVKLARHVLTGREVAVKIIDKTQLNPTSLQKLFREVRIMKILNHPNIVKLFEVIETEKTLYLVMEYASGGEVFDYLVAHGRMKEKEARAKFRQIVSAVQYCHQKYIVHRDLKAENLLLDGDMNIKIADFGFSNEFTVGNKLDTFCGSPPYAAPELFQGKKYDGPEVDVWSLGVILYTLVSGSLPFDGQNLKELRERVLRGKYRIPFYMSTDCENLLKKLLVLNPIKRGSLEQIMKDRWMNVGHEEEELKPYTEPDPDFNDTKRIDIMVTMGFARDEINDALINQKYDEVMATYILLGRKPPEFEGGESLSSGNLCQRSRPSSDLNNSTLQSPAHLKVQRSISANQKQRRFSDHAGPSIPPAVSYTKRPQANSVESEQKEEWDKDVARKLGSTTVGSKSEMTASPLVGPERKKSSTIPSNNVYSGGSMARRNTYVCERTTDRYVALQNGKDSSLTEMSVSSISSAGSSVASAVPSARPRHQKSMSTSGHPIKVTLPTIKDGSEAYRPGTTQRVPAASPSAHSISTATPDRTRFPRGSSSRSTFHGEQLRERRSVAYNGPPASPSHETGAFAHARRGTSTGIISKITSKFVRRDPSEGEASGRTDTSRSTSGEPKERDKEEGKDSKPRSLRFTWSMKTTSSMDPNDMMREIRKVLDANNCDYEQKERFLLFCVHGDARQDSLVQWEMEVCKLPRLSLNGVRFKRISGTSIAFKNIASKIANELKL
Sequence of RIPK2 (O43353 whole entry, species assumed): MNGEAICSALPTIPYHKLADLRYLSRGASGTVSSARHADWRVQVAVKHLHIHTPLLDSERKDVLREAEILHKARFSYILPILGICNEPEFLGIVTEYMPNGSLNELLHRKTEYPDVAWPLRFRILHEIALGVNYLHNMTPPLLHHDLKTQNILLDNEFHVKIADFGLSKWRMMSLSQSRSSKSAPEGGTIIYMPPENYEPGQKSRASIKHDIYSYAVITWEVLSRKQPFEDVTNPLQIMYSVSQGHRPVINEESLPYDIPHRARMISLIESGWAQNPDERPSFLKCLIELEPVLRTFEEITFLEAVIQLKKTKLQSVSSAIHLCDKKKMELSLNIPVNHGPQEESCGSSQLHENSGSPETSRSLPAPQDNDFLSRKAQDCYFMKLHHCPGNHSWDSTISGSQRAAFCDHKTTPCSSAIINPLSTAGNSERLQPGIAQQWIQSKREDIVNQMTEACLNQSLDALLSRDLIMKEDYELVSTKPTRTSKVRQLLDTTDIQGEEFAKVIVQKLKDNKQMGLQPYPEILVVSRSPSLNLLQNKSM
Sequence of PRK2 (Q16513 whole entry, species assumed): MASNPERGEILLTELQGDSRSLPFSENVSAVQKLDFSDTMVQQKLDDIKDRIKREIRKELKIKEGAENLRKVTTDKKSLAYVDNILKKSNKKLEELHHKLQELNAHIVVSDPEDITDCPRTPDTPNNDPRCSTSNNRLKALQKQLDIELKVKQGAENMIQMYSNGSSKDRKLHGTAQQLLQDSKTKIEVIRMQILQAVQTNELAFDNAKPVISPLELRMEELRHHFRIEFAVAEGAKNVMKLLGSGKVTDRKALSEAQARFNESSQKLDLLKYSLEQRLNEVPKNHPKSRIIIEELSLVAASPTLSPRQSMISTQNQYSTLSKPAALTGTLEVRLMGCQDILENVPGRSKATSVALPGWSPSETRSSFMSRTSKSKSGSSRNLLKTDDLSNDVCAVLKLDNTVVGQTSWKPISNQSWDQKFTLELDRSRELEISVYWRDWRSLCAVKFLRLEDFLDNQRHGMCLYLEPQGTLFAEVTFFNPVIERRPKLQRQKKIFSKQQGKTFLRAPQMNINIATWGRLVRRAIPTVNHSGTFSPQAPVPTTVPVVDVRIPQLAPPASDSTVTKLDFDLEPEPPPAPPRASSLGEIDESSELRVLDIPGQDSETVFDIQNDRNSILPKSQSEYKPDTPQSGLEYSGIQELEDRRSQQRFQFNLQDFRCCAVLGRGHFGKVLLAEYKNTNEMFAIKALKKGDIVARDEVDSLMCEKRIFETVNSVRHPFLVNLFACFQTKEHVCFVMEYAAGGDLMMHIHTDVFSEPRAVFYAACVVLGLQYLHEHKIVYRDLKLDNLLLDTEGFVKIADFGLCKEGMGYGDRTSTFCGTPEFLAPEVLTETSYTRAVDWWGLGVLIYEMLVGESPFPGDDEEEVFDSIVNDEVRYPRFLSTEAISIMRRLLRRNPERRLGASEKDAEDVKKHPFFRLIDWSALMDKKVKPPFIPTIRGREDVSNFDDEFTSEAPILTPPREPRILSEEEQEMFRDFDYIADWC
Sequence of IRAK1 (P51617 whole entry, species assumed): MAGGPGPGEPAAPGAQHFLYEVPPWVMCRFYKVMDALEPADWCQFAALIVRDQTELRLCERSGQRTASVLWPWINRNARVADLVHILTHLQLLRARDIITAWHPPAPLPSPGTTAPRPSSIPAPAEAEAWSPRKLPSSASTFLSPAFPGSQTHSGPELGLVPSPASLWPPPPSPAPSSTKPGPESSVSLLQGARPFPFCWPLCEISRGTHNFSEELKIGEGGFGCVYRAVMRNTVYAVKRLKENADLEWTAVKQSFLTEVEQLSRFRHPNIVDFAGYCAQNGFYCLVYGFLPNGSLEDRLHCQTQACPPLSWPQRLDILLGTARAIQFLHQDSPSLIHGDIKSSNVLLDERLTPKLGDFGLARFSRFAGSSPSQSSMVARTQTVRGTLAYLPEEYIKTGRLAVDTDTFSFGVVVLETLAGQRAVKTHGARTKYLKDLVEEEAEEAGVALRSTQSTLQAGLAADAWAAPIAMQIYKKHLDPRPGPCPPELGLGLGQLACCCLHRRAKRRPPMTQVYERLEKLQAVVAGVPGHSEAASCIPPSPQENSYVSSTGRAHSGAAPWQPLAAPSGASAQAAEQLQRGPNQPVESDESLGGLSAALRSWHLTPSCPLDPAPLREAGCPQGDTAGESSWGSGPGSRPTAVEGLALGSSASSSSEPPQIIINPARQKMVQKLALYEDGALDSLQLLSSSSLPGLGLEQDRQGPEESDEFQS
Sequence of MNK1 (Q9BUB5 whole entry, species assumed): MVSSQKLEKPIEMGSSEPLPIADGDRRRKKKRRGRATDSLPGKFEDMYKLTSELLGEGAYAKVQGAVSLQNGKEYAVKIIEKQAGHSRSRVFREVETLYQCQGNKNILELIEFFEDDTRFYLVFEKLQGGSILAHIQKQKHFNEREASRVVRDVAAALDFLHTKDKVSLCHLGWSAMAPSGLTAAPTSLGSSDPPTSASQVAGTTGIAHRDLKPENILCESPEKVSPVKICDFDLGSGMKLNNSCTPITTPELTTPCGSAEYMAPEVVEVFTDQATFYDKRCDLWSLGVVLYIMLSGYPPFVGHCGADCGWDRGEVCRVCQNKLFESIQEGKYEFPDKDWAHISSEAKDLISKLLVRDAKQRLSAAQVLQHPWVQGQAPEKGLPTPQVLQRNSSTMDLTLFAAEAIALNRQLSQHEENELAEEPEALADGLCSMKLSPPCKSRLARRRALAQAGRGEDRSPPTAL
Sequence of STK33 (Q9BYT3 whole entry, species assumed): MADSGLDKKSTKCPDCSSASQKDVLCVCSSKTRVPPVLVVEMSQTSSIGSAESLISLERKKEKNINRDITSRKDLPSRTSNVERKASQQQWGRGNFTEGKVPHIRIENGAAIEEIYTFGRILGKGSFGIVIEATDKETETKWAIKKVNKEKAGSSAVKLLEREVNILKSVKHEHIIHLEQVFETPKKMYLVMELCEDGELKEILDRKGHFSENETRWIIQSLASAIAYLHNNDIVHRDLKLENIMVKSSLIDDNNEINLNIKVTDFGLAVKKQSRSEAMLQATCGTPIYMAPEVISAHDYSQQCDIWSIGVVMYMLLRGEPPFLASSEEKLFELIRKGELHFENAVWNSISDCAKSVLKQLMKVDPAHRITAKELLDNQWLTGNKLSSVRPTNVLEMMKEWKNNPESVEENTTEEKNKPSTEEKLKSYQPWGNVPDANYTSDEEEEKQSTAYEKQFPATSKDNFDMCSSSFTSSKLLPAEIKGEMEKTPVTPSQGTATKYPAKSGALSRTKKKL

## NCCCC[C@H](NC(=O)[C@H](CC(=O)O)NC(=O)[C@H](CC(=O)O)NC(=O)[C@H](CC(=O)O)NC(=O)[C@H](CC(=O)O)NC(=O)[C@H](CC(=O)O)NC(=O)[C@@H](CC(=O)O)NC(=O)CCCCCCCn1cnc2c(Br)c(Br)c(Br)c(Br)c21)C(=O)O [TBBI-OcA-(D-Asp)-(L-Asp)5-(L-Lys)-OH] (X1-[dD]DDDDDK-OH)
[1]
  remaining activity at 1 µM: 83%
[2]
  remaining activity at 1 µM: 99%
[3]
  remaining activity at 1 µM: 120%
[4]
  remaining activity at 1 µM: 72%
[5]
  remaining activity at 1 µM: 116%
[6]
  remaining activity at 1 µM: 100%
[7]
  remaining activity at 1 µM: 89%
[8]
  remaining activity at 1 µM: 92%
[9]
  remaining activity at 1 µM: 96%
[10]
  remaining activity at 1 µM: 84%
[11]
  remaining activity at 1 µM: 94%
[12]
  remaining activity at 1 µM: 52%
[13]
  remaining activity at 1 µM: 92%

Reference: US9176064B2, “Bisubstrate fluorescent probes for protein kinase CK2” (University of Tartu, priority 2012, dated 2015)
